Molecular target: the molecule itself
Assay: electron microscopy

B1: FliP (natural protein, Salmonella enterica serovar Typhimurium)
chain: QLPGLISQPLAGGGQSWSLSVQTLVFITSLTFLPAILLMMTSFTRIIIVFGLLRNALGTPSAPPNQVLLGLALFLTFFIMSPVIDKIYVDAYQPFSEQKISMQEALDKGAQPLRAFMLRQTREADLALFARLANSGPLQGPEAVPMRILLPAYVTSELKTAFQIGFTIFIPFLIIDLVIASVLMALGMMMVPPATIALPFKLMLFVLVDGWQLLMGSLAQSFYS
B1: binds.

From article doi:10.1101/2020.11.25.397760 (bioRxiv, 2020)
